Source: patent publication US20220249369A1, “BIOLOGICAL BITS AS COMPUTABLE ELEMENTS WITHIN LIVING SYSTEMS” (GEORGIA TECH RESEARCH CORPORATION, priority 2018, published 2022)
Where no end group is shown, it is not given here. [ ]: non-standard residue; d: D form. The star is where a group is joined. 5FAM = O=C1OC2(c3ccc(O)cc3Oc3cc(O)ccc32)c2ccc(C(=O)*)cc21

Key:
[1] = biological target: plasmin (Homo sapiens, UniProt P00747); assay: Protease cleavage assay, U-gate on two-state protease bit; assay type: biochemical; details: n=3; for state probability (relative cleavage velocity) after first U-gate: plasmin exposed to state 0 and state 1 substrates
Method: Protease cleavage assays: All protease cleavage assays were performed with a BioTek Cytation 5 Imaging Plate Reader, taking fluorescent measurements at 485/528 nm and 540/575 nm (excitation/emission) for read-outs measuring peptide substrates terminated with FITC (Fluorescein isothiocyanate) and 5-TAMRA (5-Carboxytetramethylrhodamine), respectively. Kinetic measurements were taken every minute over the course of 60-120 minutes at 37° C. West Nile Virus NS3 protease (WNVp) and Tobacco Etch Virus protease (TEVp), along with their substrates, inhibitors and buffers were obtained from Anaspec, Inc. (Fremont, Calif.). Phospholipase C (PLC), Phosphatidylinositol-Specific (from Bacillus cereus) was purchased from Thermo Fisher Scientific (Waltham, Mass.). Activity RFU measurements were normalized to time 0 measurement, and as such represent fold change in signal. Granzyme B (GzmB) was purchased from PeproTech, Inc. (Rocky Hill, N.J.). Thrombin and Factor XIa were purchased from Haematologic Technologies (Essex, Vt.). Outer Membrane Protease T (OmpT, Protease 7) was purchased from Lifespan Biosciences (Seattle, Wash.). C1r was purchased from Millipore Sigma (Burlington, Mass.). GzmB, Thrombin, Factor XIa, and C1r fluorescent peptide substrates were custom ordered from CPC Scientific (Sunnyvale, Calif.). OmpT fluorescent peptide substrate was custom ordered from Genscript (Piscataway, N.J.). See Table 1 and Table 2 for more information regarding proteases, substrates, and inhibitors.
For FIGS. 5G-5I and 5N-5Q: 2 uL of thrombin (10.1 mg/mL) or plasmin (6.9 mg/mL) were added to 18 uL of respective state 1 or state 0 substrate (2 uM). Velocities of Thrombin and Plasmin cutting their respective state 1 or state 0 substrates were calculated over the first 5 minutes of incubation. These velocities were normalized by the sum of the state 1 and state 0 velocity. Therefore, the values plotted as probability in FIG. 4 are relative velocities. […]

[2] = test system: DH5α Escherichia coli; assay type: cell-based; details: 37° C., 1 hour
Description: FIGS. 8A-8B show the results of unlocking peptide caged liposomes with increasing peptide crosslinking densities (levels 0-8). Eight levels of increasing peptide cage crosslinking were used to determine the number of bacteria required to unlock each level. FIG. 8C is a graph showing bacterial cytotoxicity measurement of drug-loaded liposomes. Conditions are moving from left to right: Bacteria only control, bacteria plus free drug, bacteria plus drug-loaded liposome without lipase, and bacteria plus drug-loaded liposome with lipase. Samples were incubated with bacteria at 37° C. for eight hours and plated. CFU were quantified to estimate bacteria viability. Error bars are plotted as standard deviation (n=3). RFU stands for “Relative Fluorescence Unit” and is plotted as fold change (FC) from initial fluorescence at time=0. Bacterial Culture and Cytotoxicity Assay: DH5α Escherichia coli were cultured in LB broth (Lennox) at 37° C. and plated on LB agar (Lennox) plates. LB broth was purchased from Millipore Sigma (Burlington, Mass.) and LB agar was purchased from Invitrogen (Carlsbad, Calif.). AMP and locked AMP were custom ordered from Genscript (Piscataway, N.J.). […] Bacterial cell viability was measured by making eight 10-fold serial dilutions, and plating three 10 μL spots on an LB agar plate. Plates were incubated overnight at 37° C., and CFUs were counted. […]

Chain of plasmin (P00747 581-810 limits assumed, species assumed): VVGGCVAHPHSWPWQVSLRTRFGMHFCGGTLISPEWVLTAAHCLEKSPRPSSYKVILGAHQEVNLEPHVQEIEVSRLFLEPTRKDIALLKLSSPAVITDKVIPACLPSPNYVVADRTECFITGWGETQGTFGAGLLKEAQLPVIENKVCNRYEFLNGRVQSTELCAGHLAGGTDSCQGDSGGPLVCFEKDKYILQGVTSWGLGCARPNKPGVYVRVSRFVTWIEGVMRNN
Chain of plasmin (P00747 97-580 partner limits assumed, species assumed): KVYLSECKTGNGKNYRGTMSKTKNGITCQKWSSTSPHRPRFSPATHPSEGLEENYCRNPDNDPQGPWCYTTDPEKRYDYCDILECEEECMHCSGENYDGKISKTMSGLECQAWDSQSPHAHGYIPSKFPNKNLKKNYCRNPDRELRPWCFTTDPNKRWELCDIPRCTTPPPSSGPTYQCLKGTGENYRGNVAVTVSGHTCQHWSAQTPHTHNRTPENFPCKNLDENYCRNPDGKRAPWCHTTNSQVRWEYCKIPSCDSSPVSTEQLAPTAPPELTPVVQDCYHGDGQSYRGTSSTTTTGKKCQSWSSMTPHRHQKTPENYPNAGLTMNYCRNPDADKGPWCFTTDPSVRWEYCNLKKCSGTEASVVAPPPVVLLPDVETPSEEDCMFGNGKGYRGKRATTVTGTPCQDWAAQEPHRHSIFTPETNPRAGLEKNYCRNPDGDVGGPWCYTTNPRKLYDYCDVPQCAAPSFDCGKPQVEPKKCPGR

Substance: 5FAM-GLQRALEI-K(CPQ2)-k-C (5FAM-GLQRALEIK(CPQ2)[dK]C) [CC9, quenched fluorescent plasmin substrate (state 0)]
- state probability (relative cleavage velocity) after first U-gate [1]: 45%
- state 0 probability (relative cleavage velocity) after second U-gate ([1]; state 0 substrate added in large molar excess): 93%

Substance: 5FAM-KYLGRSYKV-K(CPQ2)-C (5FAM-KYLGRSYKVK(CPQ2)C) [CC6, quenched fluorescent protease substrate (state 1)]
- state probability (relative cleavage velocity) after first U-gate [1]: 55%

Substance: EEEEEEEEENLYFQGRRRRRRRRR [Locked AMP p1, polyarginine AMP locked by polyglutamic acid via TEV-cleavable linker]
- cytolytic activity against bacteria compared to untreated controls ([2]; locked drug without protease): no significant cytolytic activity
- reduction in bacterial colonies ([2]; protease-cleaved (TEVp)): significant reduction in bacterial colonies
